From patent US20120214173A1, “Methods of Identifying Modulators of an Ehd Polypeptide” (priority 2007, published 2012)
Residue numbers refer to the chain shown, from its start. Names and notes keep the numbering of the source. “Also recorded” adds a separate entry of the source. Each block holds one molecule with its values, some of them ahead of it.

Experiments:
[1] = Negative stain EM of liposome tubulation/oligomerisation; details: 2.5 μM protein, PS liposomes
Experimental: (§1) Amino acid numbering corresponds to mouse EHD2. b, EHD2 binds to adenine nucleotides, as determined by ITC. For clarity, ΔΔH=ΔHn−ΔH1 is plotted. […] Images were acquired close to the basal cell surface. f, Nucleotide hydrolysis was measured by HPLC in the absence (empty symbols) or presence of Folch liposomes (filled symbols). Data represent mean and standard deviation for two (intrinisic reactions) or three (stimulated reactions) independent experiments.
EHD2 was incubated with the indicated liposomes in the presence and absence of nucleotides and analysed by EM as described in Methods. a, EHD2 deformed PS liposomes into tubular networks, here in the presence of ATP-γ-S. b, Enlarged views of the indicated area in a. Note the presence of regularly spaced EHD2 rings (some are indicated with arrows). This even spacing may be due to the curvature stress generated by an EHD2 ring along the axis of the lipid tubule which might disfavour binding of the next ring in the direct vicinity (see below). c, Some of the lipid tubules (especially at higher protein concentration) were tightly packed with EHD2 oligomeric rings. d,e In the presence of ADP and in the absence of nucleotide (f,g), EHD2 also tubulated PS liposomes and formed ring-like structures around the tubules. e,g are enlarged views of the indicated areas in d and f, respectively.
(§2) Reactions were started by the addition of the protein to the final reaction mix and nucleotide hydrolysis was followed using standard HPLC measurement^27. Initial rates were determined by applying a linear fit to data points up to 40% nucleotide hydrolysis. For electron microscopic studies, 2.5 μM EHD2 in 20 mM HEPES (pH 7.5), 150 mM NaCl, 1 mM MgCl2 was incubated for 15 min at 25° C. in the presence of 1 mM nucleotide and 0.05 mg/ml (final concentration) of the indicated liposomes. Samples were spotted on carbon-coated copper grids (Canemco and Marivac) and negatively stained with 2% uranyl acetate.
Nucleotide-independence of liposome tubulation in vitro is also observed for dynamin^16. No noticeable tubule fission or alteration in tubule diameter was found for EHD2 in the presence of ATP. […] Folch liposomes were also tabulated by EHD2. However, with synthetic liposomes containing only 2.5% PIP2 and in the absence of PS, the amount of EHD binding was reduced, and in this less favourable binding condition we only observed tubulation in the presence of ATP-γ-S and ADP but not in the absence of nucleotides (FIG. 7).

[2] = test system: HeLa cells; test: Over-expression of EGFP-tagged EHD2 and mutants in HeLa cells (confocal / live imaging); type: cell-based; details: for distribution of EGFP-tagged protein over-expressed in HeLa cells: 24 h after transfection, fixed; for dynamics of tubules and puncta by EPI-fluorescence live imaging: over-expressed 24 h, imaged approximately 30 min
Experimental: as §1
(§3) Nucleotide hydrolysis was measured as described in FIG. 1f. In vitro tubulation activity of PS liposomes was analysed as described in FIG. 1d. f, EGFP-tagged mutants were over-expressed in HeLa cells. […] For each construct, three independent experiments with ≈50 cells/experiments were analysed.
Ultracentrifugation. Sedimentation velocity experiments were performed in a Beckman Optima XLA ultracentrifuge, using an An-60Ti rotor. Centrifugation was at 50,000 rev×min and 5° C. at an EHD2 concentration of 15 μM, with scans as fast as possible (˜1.5 min intervals). The data were analysed using DCDT+ v.2^44,45, with the partial specific volume for the protein (from the amino acid composition) and solvent density and viscosity calculated using Sednterp^46. Selected scans (at equal, ˜15 min intervals), and of g(s20,w) (the amount of material sedimenting between s20,w and (s20,w+δs)) and also the residuals for fitting the data with DCDT+, were plotted with the program profit v.5.6.7 (Quantum soft, Switzerland). Cell biology. N-terminal EGFP-tagged EHD2 and all mutants were over-expressed in HeLa cells from the pEGFP-C3 vector (Clontech). HeLa cells were grown as per ECACC guidelines with 10% fetal bovine serum and transfected using Genejuice (Novagen) for transient protein expression. 24 h after transfection, cells were fixed for 10 min at 37° C. in 3% paraformaldehyde and mounted. All confocal images were taken sequentially using a BioRad Radiance system and LaserSharp software (Biorad). For real-time microscopy, transfected cells on glass-bottom Petri dishes (WillCo Wells BV, Amsterdam) were washed with 25 mM HEPES (pH 7.5), 125 mM NaCl, 5 mM KCl, 10 mM D-glucose, 1 mM MgCl2, 2 mM CaCl), and epifluorescence images were taken using an Olympus IX70 microscope (Southhall, UK) and Argon laser (Melles Griot, Carlsbad, Calif.) with a Princeton instruments (Trenton, N.J.) cooled I-PentaMAX camera with MetaMorph software (Universal imaging).
EHD2 wild-type was over-expressed in HeLa cells for 24 h and imaged by EPI-fluorescence for approximately 30 min.
EHD2 T94A was over-expressed in HeLa cells for 24 h and imaged by EPI-fluorescence for approximately 30 min. […] EHD2 I157Q was over-expressed in HeLa cells for 24 h and imaged by EPI-fluorescence for approximately 30 min.

[3] = Liposome co-sedimentation (membrane binding) assay; details: Folch / PS liposomes
Experimental: as §1, §3
(§4) ITC measurements were performed at 10° C. in 20 mM HEPES (pH 7.5), 300 mM NaCl, 2 mM MgCl2. Liposome binding assays were performed as described previously (www.endocytosis.org). Multiple turnover ATPase assays were performed in 20 mM HEPES (pH 7.5), 135 mM NaCl, 15 mM KCl, 1 mM MgCl2 at 30° C. with 10 μM EHD2 (or mutants) as enzyme and 100 μM ATP as substrate, in the absence or presence of 1 mg/ml Folch liposomes (Sigma-Aldrich).
Mouse full-length EHD2 was expressed in bacteria and purified to homogeneity (FIG. 5). The purified protein was nucleotide-free as judged by HPLC analysis. […] It was previously reported that EHDs—despite having a predicted G-domain—bind to adenine nucleotides^15. […] We still refer to this domain as a G-domain because the sequence and fold (see below) are clearly similar to other G-domains. […] Using synthetic liposomes containing various different phosphatidyl-inositols (PI) (FIG. 1c) we observed best binding to liposomes containing PI(4,5)bisphosphate (PIP2).

[4] = target: T1, EHD2 (Mus musculus, UniProt Q8BH64); test: Multiple turnover ATPase assay (nucleotide hydrolysis by HPLC) with or without Folch liposomes; type: biochemical; details: for kobs stimulated ATPase reaction: presence of 1 mg/ml Folch (or PS) liposomes; for membrane-stimulated ATPase activity (in words) / decrease in the stimulated ATPase rate versus wt: presence of Folch liposomes
T1 construct: Mouse EHD2 full-length protein and all mutants were expressed as N-terminal His-fusions followed by a PreScission cleavage site; His (N, cleaved yes); made in house; host or cells: Escherichia coli BL21 DE3 Rosetta
T1 sequence (Q8BH64 1-543): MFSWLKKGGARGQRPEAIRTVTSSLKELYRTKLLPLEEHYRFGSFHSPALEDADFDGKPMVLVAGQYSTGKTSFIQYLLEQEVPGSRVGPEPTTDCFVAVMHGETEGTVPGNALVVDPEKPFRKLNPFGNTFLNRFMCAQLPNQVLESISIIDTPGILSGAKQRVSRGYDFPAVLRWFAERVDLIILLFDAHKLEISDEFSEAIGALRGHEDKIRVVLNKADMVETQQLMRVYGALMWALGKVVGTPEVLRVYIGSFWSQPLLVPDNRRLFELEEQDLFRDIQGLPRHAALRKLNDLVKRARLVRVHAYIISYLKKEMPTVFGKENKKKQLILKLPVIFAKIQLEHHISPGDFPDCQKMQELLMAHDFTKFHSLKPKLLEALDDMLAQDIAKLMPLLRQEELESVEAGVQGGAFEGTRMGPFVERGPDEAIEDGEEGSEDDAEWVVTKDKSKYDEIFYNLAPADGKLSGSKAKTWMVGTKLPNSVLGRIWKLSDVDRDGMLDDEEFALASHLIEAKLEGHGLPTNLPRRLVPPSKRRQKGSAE
Experimental: as §1, §4, §2
We next monitored the effect of membrane-binding on the ATPase activity of. EHD2 under multiple-turnover conditions (10-fold excess of ATP over EHD2), in the presence and absence of Folch liposoines (FIG. 1f). The intrinsic/background ATPase activity is extremely slow (kobs=0.7 h^−1) but is stimulated 8-fold in the presence of Folch or PS liposomes (kobs=5.6 h^−1).

[5] = target: Q8BH64
[6] = 10 μM protein, 100 μM ATP, 30° C.

binding to liposomes (co-sedimentation) [3]: efficient binding
stimulation of intrinsic ATP reaction by liposomes ([4]; Folch or PS liposomes versus no liposomes): 8 fold
stimulated nucleotide hydrolysis slower than dynamin ([4]; stimulated condition, versus dynamin GTP hydrolysis): 600 fold
Molecule: EHD2: mouse full-length EHD2 expressed in bacteria; EGFP-tagged in HeLa cells
liposome tubulation / oligomerisation by EM [1]: deforms PS liposomes in a nucleotide-independent manner into 20 nm-diameter tubules
distribution of EGFP-tagged protein over-expressed in HeLa cells [2]: localised to puncta and tubular networks close to the cell surface; also recorded: marked punctate and tubular structures
dynamics of tubules and puncta by EPI-fluorescence live imaging [2]: Some of the tubules and puncta are dynamic
kobs intrinsic/background ATPase activity ([4]; 10 μM protein, 100 μM ATP, 30° C., absence of liposomes): 0.7 h⁻¹
kobs stimulated ATPase reaction [4, 6]: 5.6 h⁻¹
kobs stimulated ATPase reaction ([4]; 10 μM protein, 100 μM ATP, 30° C., listed as wt): 5.4 h⁻¹

B1: EHD2 double mutant of the two side-site xPF motifs (F122A/F128A) (protein)
chain: T1 sequence (Q8BH64 1-543) with F122A, F128A
liposome tubulation / oligomerisation by EM [1]: did not find any regular oligomers on liposomes
membrane-stimulated ATPase activity (in words) [4]: did not show any membrane-stimulated ATPase activity
membrane-stimulated ATPase activity (in words) ([4]; listed as mutation of the side site xPFs motif): completely prevented the membrane-stimulated ATPase reaction
membrane-stimulated ATPase activity [5]: did not show any membrane-stimulated ATPase activity

binding to liposomes (co-sedimentation) [3]: bound less to liposomes
decrease in the stimulated ATPase rate versus wt [4]: 75%
B2: K328D: EHD2 polybasic cluster mutant (protein, UniProt Q8BH64 1-543, looked up, variant K328D)
EH domain-containing protein 2: T1 sequence (Q8BH64 1-543) with K328D
distribution of EGFP-tagged protein over-expressed in HeLa cells [2]: completely cytoplasmic distribution
kobs stimulated ATPase reaction [4, 6]: 1.6 h⁻¹
membrane-stimulated ATPase activity (in words) [4]: reduced ATPase stimulation

binding to liposomes (co-sedimentation) [3]: bound less to liposomes
decrease in the stimulated ATPase rate versus wt [4]: 40%
B3: F322A: EHD2 membrane-binding site mutant (protein, UniProt Q8BH64 1-543, looked up, variant F322A)
EH domain-containing protein 2: T1 sequence (Q8BH64 1-543) with F322A
distribution of EGFP-tagged protein over-expressed in HeLa cells [2]: completely cytoplasmic distribution
kobs stimulated ATPase reaction [4, 6]: 3.0 h⁻¹
membrane-stimulated ATPase activity (in words) [4]: reduced ATPase stimulation

binding to liposomes (co-sedimentation) [3]: bound to Folch liposomes
B4: T72A: EHD2 mutant in the phosphate binding (P-)loop, nucleotide-free (protein, UniProt Q8BH64 1-543, looked up, variant T72A)
EH domain-containing protein 2: T1 sequence (Q8BH64 1-543) with T72A
distribution of EGFP-tagged protein over-expressed in HeLa cells [2]: cytoplasmic distribution
membrane-stimulated ATPase activity (in words) [4]: did not show stimulation of ATP hydrolysis; also recorded: did not show membrane-stimulated ATPase activity

B5: I157Q: EHD2 mutant with re-introduced catalytic glutamine in the active site (protein, UniProt Q8BH64 1-543, looked up, variant I157Q)
EH domain-containing protein 2: T1 sequence (Q8BH64 1-543) with I157Q
liposome tubulation / oligomerisation by EM [1]: tubulated liposomes
distribution of EGFP-tagged protein over-expressed in HeLa cells [2]: exclusively punctate staining; also recorded: labelled only very short tubules and puncta
dynamics of tubules and puncta by EPI-fluorescence live imaging [2]: No tubules can be found and the puncta are mostly motile
intrinsic/basal ATPase activity (in words) ([4]; absence of membranes): hydrolysed ATP faster than wild-type
membrane-stimulated ATPase activity (in words) [4]: not further stimulated by membranes
